Experimental data from the nanobody polyreactivity screen of Harvey et al. (2022).

Assay: yeast display, Sf9 membrane polyspecificity reagent, FACS + sequencing; frameworks hold sequencing errors
Method in brief: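 A synthetic nanobody library was expressed on Saccharomyces cerevisiae BJ5465 by galactose induction for 36–48 hours. The library was stained for 1 hour at 4 °C with 10% biotinylated, detergent-solubilized Sf9 membrane reagent and enriched with streptavidin microbeads before FACS. Low and high (top ~1%) gates were set on anti-HA fluorescence for expression and streptavidin fluorescence for reagent binding, and each polyreactivity label reflects the gate of origin.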

| Sequence | polyreactivity (PSR sort gate) |
| --- | --- |
| QVQLVESGGGLVQAGGSLRLICAASGFIITRNAMVWYRPAPGKERELGAVISYGGGSTYYADSVKGRFTISRDNAKNTVYLQMNSLKPEDTAVYYCAADPTWRYYYHYTYYYWGQGTQVTVSS | high polyreactivity |
| QVQLVESGGGFVQAGGSLRLSCAASVSILWWYAMGWSRKATVKERELVAAITWSGTSTYYADSVKGRFTISRVNGKNTLYLQMISLKPEETAVYYCAVRSYVNGGWYDYWGQGTQGTVSS | high polyreactivity |
| QVQLVESGGGLVQAGGSLRLSCAASGRIFRYNAMGWYRQAPGKERELVAAISFSTTSPYYADSVKGRFTISRDNAKNTVYLQMNSLKPEDTAVYNCNTPGLPIDSEYDYWGQGTQVTVSS | low polyreactivity |
| QVRLVESGGGLVQAGGSLRLSCAASGSTFKTYAMGWYRQAPGKERELVAAISAGGGSTYYADSVKGRFTISRDNAKNTVYLQMYSLKPEDTAVYYCAAAYIYAGWDYEYWGQGTQVTVSS | low polyreactivity |
| QVQLVESGGGLVQAGGSLRLSCAASGSIFPYYAMGWYRQAPGKETELVAVINSGGITNYADSVKGRFTISRDNAKNTVYLQMNSLKPEDTAVYYCAAAASPLTRHLYWGQGTQVTVSS | low polyreactivity |
| HVQLVESGGGLVQAAGSLRLSCAASGRIFSAYAMGWYRQAPGKEREFVAAITQSGGSTYYAESVKGRFTISRDNAKNTVYLQMNSLKPEDTAVYYCAAGDAYYTEALPFGEYDYWGQGTQVTVSS | low polyreactivity |
| QDQLVESGGGLVQAGGSLRLSCAASGATYRNNAMGWYRQAPGKERELVAAISRGGGSTYYADSVNGRFTISRDNAKNNVYLQMNSLKPEDTAVYYCARRPTGIYDYWGQGTQVTVSS | high polyreactivity |
| QVQLVESGGGLVQAGGSLRLSCAASGLIFSSNAMGWYRQAPGKERELVATISWSGGSTYYADSVKGRFTISRDNAKNTVYLQMNSLKPEDTAVYYCCWSALNGYDYWGQGTQVTVSS | high polyreactivity |
| QVQLVESGGGLVQAGGSLRLSCAASGSICYGYTMGWYRQAPGKEREFVAAITGSGGSTYYADSVKGRFTISRDNAKNTVYLQMNSLKPEDTAVYYCAARRYVNRRYDYWGQGTQVTVSS | high polyreactivity |
| QVQLVESGGGLDQAGGSLRLSCAASGSIFVNYARGWYRQAPGKERELVAAITRSGGRTYYADSVKGRFTISRDNAKNTVYLQMNSLKPEVTAVYYCAARRGYAGNRDGYWGQGTQVNVSS | high polyreactivity |
| QVQLVESGGGLVQAGGSLRLSCAASGSTSTYYAMGWYRQAPGKERELVATISSTGNTKYADSVKGRFTISRDNAKNTVYLQMNSLKPEDTAVYYCNKRRSARFSSWGRVSYDYWGQGTQVTVSS | high polyreactivity |
| QVQLVESGGGLVQAGGSLRLSCAASGFIFRYYAMGWYRQAPGKERELVAAISWSGGTTYYADSVKGRFTISRDNAKNTVYLQMNSLKPEDTAVYYCAARVARISVPYDYWGQGTEVTVSS | low polyreactivity |
| QDQLVESGGGLVQAGGSLGLSCAASGLTFSYYAMAWYRQAPGKERELVAAIDYSGGTTYADSVKGRFTISRDNAKNTVYLQMNSLKPEDTAVYYCADAPDGWFASGDEYWGQGTQVTVSS | high polyreactivity |
| QFPLVESAGGLGQAGGTLRLTWAASGLSFGANTLGWYRHAPGKERELVAALTISGGITHYADSVKGRFTISRDNANNTVYVQIKSLQPEDTAVYYCAAGAYWRLYPYRQRNGGRMYYWGQGTQVTVSS | low polyreactivity |
| QVQLVESGGGLVQAGGSLRLSCAASGRIFGYYAMGWSRQAPGKERELVAAISSDGSTYYADSVKGRFTISRDNAENTVYLQMNSLKPEDTAVYYCAKEGRWDSYGYSAQPFYYWGQGTQVTVSS | low polyreactivity |
| QVQLVESGGGLVQAGGSLRLSCAASGRIFDLYTMGWYRQAPGKERELVAAITSSGDSTYYADSVKGRFTISRDNAKNTVYLQMNSLKPEDTAVYYCAAESKYWEPWWYYYYDMDYWGQGTQVTVSS | low polyreactivity |
| QVQLVESGGGLVQAGGSLRLSCAASGIIFSEYAMGWNRKAPGKERELVAAISKSGGRTYYADSVKGRFTISRDNAKNTVYLQMNSLKPEDTAVYYCAARHAPILGDHGMKYWGQGTQVTVSS | high polyreactivity |
